One substance from PMC4141209 can be followed below.

The test addresses TlLhpI (OCD-like protein / Δ1-pyrroline-2-carboxylate reductase from Thermococcus litoralis DSM 5473) (Thermococcus litoralis DSM 5473). As to the kind of experiment: SEC. For orientation: Size exclusion chromatography separates by hydrodynamic size, large species first.

A word on the stoichiometry N: it is a count of units in the complex or per binding partner. In the case of “TlLhpI (OCD-like protein / Δ1-pyrroline-2-carboxylate reductase from Thermococcus litoralis DSM 5473) (enzyme)”, the stoichiometry N was determined as 2.
